Laboratory results as given in publication PMC9715718.

Tests used:
[1] = molecular target: PqsE (purified, affinity tag removed) (Pseudomonas aeruginosa) (UniProt P20581); test: SEC-MALS; Superdex 200 Increase column in SEC buffer, 40-150 µg of protein applied
[2] = molecular target: RhlR-ATTO488 (Pseudomonas aeruginosa) (UniProt P54292); test: MST; PqsE diluted 1:1 from 10 µM, RhlR-ATTO488 at 20 nM; 50 mM Tris pH 8.0, 300 mM NaCl, 5% glycerol, 50 µM mBTL, 0.05% Tween; 25 °C

RhlR (untagged, co-expressed with His6-PqsE) (from UniProt P54292) (natural protein)
stoichiometry N (RhlR per PqsE (2:2 complex)) [1]: 1

PqsE (purified, affinity tag removed) (from UniProt P20581) (enzyme)
Kd [2]: 146 nM
